Laboratory results published in US20250320281A1.

Key:
Assay in all cases: cell-based or functional assay
[1] = molecular target: HIV-1 Env of isolate MGRM-C-001 (HIV-1)
[2] = molecular target: HIV-1 Env of isolate MGRM-C-002 (HIV-1)
[3] = molecular target: HIV-1 Env of isolate MGRM-C-004 (HIV-1)
[4] = molecular target: HIV-1 Env of isolate MGRM-C-005 (HIV-1)
[5] = molecular target: HIV-1 Env of isolate MGRM-C-006 (HIV-1)
[6] = molecular target: HIV-1 Env of isolate MGRM-C-007 (HIV-1)
[7] = molecular target: HIV-1 Env of isolate MGRM-C-008 (HIV-1)
[8] = molecular target: HIV-1 Env of isolate MGRM-C-009 (HIV-1)
[9] = molecular target: HIV-1 Env of isolate MGRM-C-010 (HIV-1)
[10] = molecular target: HIV-1 Env of isolate MGRM-C-012 (HIV-1)
[11] = molecular target: HIV-1 Env of isolate MGRM-C-013 (HIV-1)
[12] = molecular target: HIV-1 Env of isolate MGRM-C-014 (HIV-1)
[13] = molecular target: HIV-1 Env of isolate MGRM-C-015 (HIV-1)
[14] = molecular target: HIV-1 Env of isolate MGRM-C-017 (HIV-1)
[15] = molecular target: HIV-1 Env of isolate MGRM-C-019 (HIV-1)
[16] = molecular target: HIV-1 Env of isolate MGRM-C-020 (HIV-1)
[17] = molecular target: HIV-1 Env of isolate MGRM-C-022 (HIV-1)
[18] = molecular target: HIV-1 Env of isolate MGRM-C-023 (HIV-1)
[19] = molecular target: HIV-1 Env of isolate MGRM-C-024 (HIV-1)
[20] = molecular target: HIV-1 Env of isolate MGRM-C-025 (HIV-1)
[21] = molecular target: HIV-1 92RW020 Env (pseudovirus) (HIV-1)
[22] = molecular target: HIV-1 92TH021 Env (pseudovirus) (HIV-1)
[23] = molecular target: HIV-1 92UG024 Env (pseudovirus) (HIV-1)
[24] = molecular target: HIV-1 93IN905 Env (pseudovirus) (HIV-1)
[25] = molecular target: HIV-1 94UG103 Env (pseudovirus) (HIV-1)
[26] = molecular target: HIV-1 APV6 Env (pseudovirus) (HIV-1)
[27] = molecular target: HIV-1 JRCSF Env (pseudovirus) (HIV-1) (UniProt P20871)
[28] = molecular target: HIV-1 MGRM-A-010 Env (pseudovirus) (HIV-1)
[29] = molecular target: HIV-1 MGRM-C-026 Env (pseudovirus) (HIV-1)
[30] = molecular target: HIV-1 MGRM-C-027 Env (pseudovirus) (HIV-1)
[31] = molecular target: HIV-1 MGRM-C-028 Env (pseudovirus) (HIV-1)
[32] = molecular target: HIV-1 MGRM-D-018 Env (pseudovirus) (HIV-1)
[33] = molecular target: HIV-1 NL43 Env (pseudovirus) (HIV-1)
[34] = molecular target: HIV-1 92UG005 Env (pseudovirus) (HIV-1)
[35] = molecular target: HIV-1 CMU02 Env (pseudovirus) (HIV-1)

Chain of 1443_C16 (PG16) (TCN-116) (antibody) (VH): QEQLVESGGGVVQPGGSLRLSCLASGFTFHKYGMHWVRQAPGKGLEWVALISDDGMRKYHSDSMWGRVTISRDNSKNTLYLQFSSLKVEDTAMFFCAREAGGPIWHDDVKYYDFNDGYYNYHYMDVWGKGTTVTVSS
Chain of 1443_C16 (PG16) (TCN-116) (antibody) (VL): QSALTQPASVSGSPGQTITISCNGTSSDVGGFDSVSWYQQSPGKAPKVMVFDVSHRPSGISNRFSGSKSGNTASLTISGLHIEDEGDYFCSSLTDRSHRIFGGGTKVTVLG
Chain of 4980_N08 (PGT-143) (antibody) (VH): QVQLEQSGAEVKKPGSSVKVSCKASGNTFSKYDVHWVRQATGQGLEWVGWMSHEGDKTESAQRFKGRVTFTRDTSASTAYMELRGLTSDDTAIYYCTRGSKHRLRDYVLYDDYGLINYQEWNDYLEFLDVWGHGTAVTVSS
Chain of 4980_N08 (PGT-143) (antibody) (VL): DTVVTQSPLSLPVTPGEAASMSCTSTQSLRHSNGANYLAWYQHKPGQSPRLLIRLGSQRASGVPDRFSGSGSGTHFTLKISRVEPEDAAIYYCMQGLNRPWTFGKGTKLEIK
Chain of 4995_E20 (PGT-142) (antibody) (VH): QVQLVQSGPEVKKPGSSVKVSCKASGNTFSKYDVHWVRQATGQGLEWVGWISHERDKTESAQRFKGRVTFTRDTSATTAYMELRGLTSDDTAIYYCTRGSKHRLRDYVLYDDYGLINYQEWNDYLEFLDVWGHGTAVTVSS
Chain of 4995_E20 (PGT-142) (antibody) (VL): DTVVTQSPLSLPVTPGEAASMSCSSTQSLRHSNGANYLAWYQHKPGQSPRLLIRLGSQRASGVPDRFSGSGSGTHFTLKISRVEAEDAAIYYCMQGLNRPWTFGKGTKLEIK
Chain of 4993_K13 (PGT-141) (antibody) (VH): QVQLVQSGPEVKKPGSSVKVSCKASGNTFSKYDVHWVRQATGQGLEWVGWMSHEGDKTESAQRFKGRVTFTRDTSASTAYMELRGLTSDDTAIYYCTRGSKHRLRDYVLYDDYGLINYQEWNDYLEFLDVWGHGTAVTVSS
Chain of 4970_K22 (PGT-144) (antibody) (VH): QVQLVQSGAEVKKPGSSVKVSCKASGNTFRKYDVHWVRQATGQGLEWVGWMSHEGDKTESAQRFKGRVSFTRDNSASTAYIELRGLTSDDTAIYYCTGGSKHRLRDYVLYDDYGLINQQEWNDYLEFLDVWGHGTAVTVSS
Chain of 4970_K22 (PGT-144) (antibody) (VL): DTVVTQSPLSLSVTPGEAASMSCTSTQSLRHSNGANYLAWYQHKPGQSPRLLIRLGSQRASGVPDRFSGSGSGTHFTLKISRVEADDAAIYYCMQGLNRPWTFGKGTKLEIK

Substance | IC50 [1] | IC50 [2] | IC50 [3] | IC50 [4] | IC50 [5] | IC50 [6] | IC50 [7] | IC50 [8] | IC50 [9] | IC50 [10] | IC50 [11] | IC50 [12] | IC50 [13] | IC50 [14] | IC50 [15] | IC50 [16] | IC50 [17] | IC50 [18] | IC50 [19] | IC50 [20] | also measured
2F5 (antibody) | > 50 µg/mL | 44.7 µg/mL | > 50 µg/mL | > 50 µg/mL | > 50 µg/mL | > 50 µg/mL | > 50 µg/mL | > 50 µg/mL | > 50 µg/mL | > 50 µg/mL | 18.4 µg/mL | > 50 µg/mL | > 50 µg/mL | > 50 µg/mL | > 50 µg/mL | > 50 µg/mL | > 50 µg/mL | > 50 µg/mL | > 50 µg/mL | > 50 µg/mL | 
2G12 (antibody) | 2.93 µg/mL | > 50 µg/mL | > 50 µg/mL | > 50 µg/mL | > 50 µg/mL | > 50 µg/mL | > 50 µg/mL | > 50 µg/mL | > 50 µg/mL | > 50 µg/mL | > 50 µg/mL | > 50 µg/mL | 1.75 µg/mL | > 50 µg/mL | > 50 µg/mL | 18.6 µg/mL | > 50 µg/mL | > 50 µg/mL | > 50 µg/mL | > 50 µg/mL | 
4E10 (antibody) | 5.66 µg/mL | 18.2 µg/mL | 24.2 µg/mL | 16.4 µg/mL | 4.94 µg/mL | 5.84 µg/mL | 2.97 µg/mL | 0.56 µg/mL | 11 µg/mL | 0.44 µg/mL | 2.1 µg/mL | 2.48 µg/mL | 2.52 µg/mL | 1.47 µg/mL | 3.49 µg/mL | 2.8 µg/mL | 5.71 µg/mL | 1.95 µg/mL | 22.6 µg/mL | 5.58 µg/mL | 
1443_C16 (PG16) (TCN-116) (antibody) | 16.8 µg/mL | 28.3 µg/mL | 5.09 µg/mL | 2.55 µg/mL | 2.62 µg/mL | 0.05 µg/mL | > 50 µg/mL | > 50 µg/mL | > 50 µg/mL | 0.48 µg/mL | > 50 µg/mL | > 50 µg/mL | 0.26 µg/mL | 1.8 µg/mL | 0.002 µg/mL | > 50 µg/mL | 0.25 µg/mL | 0.09 µg/mL | 0.04 µg/mL | 0.04 µg/mL | 
1495_C14 (PGC14) (antibody) | > 50 µg/mL | > 50 µg/mL | > 50 µg/mL | > 50 µg/mL | > 50 µg/mL | > 50 µg/mL | > 50 µg/mL | > 50 µg/mL | > 50 µg/mL | > 50 µg/mL | > 50 µg/mL | > 50 µg/mL | > 50 µg/mL | > 50 µg/mL | 12 µg/mL | > 50 µg/mL | > 50 µg/mL | > 50 µg/mL | > 50 µg/mL | > 50 µg/mL | 
1496_C09 (PG9) (TCN-109) (antibody) |  |  | 1.18 µg/mL | 2.98 µg/mL | 0.23 µg/mL | 0.09 µg/mL |  |  | 12.4 µg/mL | 0.24 µg/mL |  | 0.64 µg/mL | 0.5 µg/mL | 1.52 µg/mL | 0.01 µg/mL |  | 0.19 µg/mL | 0.51 µg/mL | 0.22 µg/mL | 0.17 µg/mL | neutralization IC50 (pseudovirus) [21]: 0.161 µg/mL; neutralization IC50 (pseudovirus) [22]: 0.103 µg/mL; neutralization IC50 (pseudovirus) [23]: 1.91 µg/mL; neutralization IC50 (pseudovirus) [24]: 0.048 µg/mL; neutralization IC50 (pseudovirus) [25]: 0.31 µg/mL; neutralization IC50 (pseudovirus) [26]: 0.214 µg/mL; neutralization IC50 (pseudovirus) [27]: 0.0048 µg/mL; neutralization IC50 (pseudovirus) [28]: 0.0375 µg/mL; neutralization IC50 (pseudovirus) [29]: 0.113 µg/mL; neutralization IC50 (pseudovirus) [30]: 2.45 µg/mL; neutralization IC50 (pseudovirus) [31]: 0.121 µg/mL; neutralization IC50 (pseudovirus) [32]: 2.04 µg/mL; neutralization IC50 (pseudovirus) [33]: 0.687 µg/mL
4970_K22 (PGT-144) (antibody) |  |  |  |  |  |  |  |  |  |  |  |  |  |  |  |  |  |  |  |  | neutralization IC50 (pseudovirus) [21]: > 10 µg/mL; IC50 (neutralizing activity, pseudovirus) [22]: 0.0934 µg/mL; IC50 (neutralizing activity, pseudovirus) [34]: > 10 µg/mL; IC50 (neutralizing activity, pseudovirus) [23]: > 10 µg/mL; IC50 (neutralizing activity, pseudovirus) [24]: 0.158 µg/mL; IC50 (neutralizing activity, pseudovirus) [25]: > 10 µg/mL; IC50 (neutralizing activity, pseudovirus) [26]: > 10 µg/mL; IC50 (neutralizing activity, pseudovirus) [35]: > 10 µg/mL; IC50 (neutralizing activity, pseudovirus) [27]: 0.128 µg/mL; IC50 (neutralizing activity, pseudovirus) [28]: 4.02 µg/mL; IC50 (neutralizing activity, pseudovirus) [29]: > 10 µg/mL; IC50 (neutralizing activity, pseudovirus) [30]: > 10 µg/mL; IC50 (neutralizing activity, pseudovirus) [31]: > 10 µg/mL; IC50 (neutralizing activity, pseudovirus) [32]: > 10 µg/mL; IC50 (neutralizing activity, pseudovirus) [33]: > 10 µg/mL
4980_N08 (PGT-143) (antibody) |  |  |  |  |  |  |  |  |  |  |  |  |  |  |  |  |  |  |  |  | neutralization IC50 (pseudovirus) [21]: > 10 µg/mL; IC50 (neutralizing activity, pseudovirus) [22]: 0.0028 µg/mL; IC50 (neutralizing activity, pseudovirus) [34]: > 10 µg/mL; IC50 (neutralizing activity, pseudovirus) [23]: > 10 µg/mL; IC50 (neutralizing activity, pseudovirus) [24]: 0.0021 µg/mL; IC50 (neutralizing activity, pseudovirus) [25]: > 10 µg/mL; IC50 (neutralizing activity, pseudovirus) [26]: 4.43 µg/mL; IC50 (neutralizing activity, pseudovirus) [35]: > 10 µg/mL; IC50 (neutralizing activity, pseudovirus) [27]: 0.0064 µg/mL; IC50 (neutralizing activity, pseudovirus) [28]: 0.0657 µg/mL; IC50 (neutralizing activity, pseudovirus) [29]: > 10 µg/mL; IC50 (neutralizing activity, pseudovirus) [30]: 0.505 µg/mL; IC50 (neutralizing activity, pseudovirus) [31]: 1.82 µg/mL; IC50 (neutralizing activity, pseudovirus) [32]: > 10 µg/mL; IC50 (neutralizing activity, pseudovirus) [33]: 0.585 µg/mL
4993_K13 (PGT-141) (antibody) |  |  |  |  |  |  |  |  |  |  |  |  |  |  |  |  |  |  |  |  | neutralization IC50 (pseudovirus) [21]: > 10 µg/mL; IC50 (neutralizing activity, pseudovirus) [22]: 0.0019 µg/mL; IC50 (neutralizing activity, pseudovirus) [34]: > 10 µg/mL; IC50 (neutralizing activity, pseudovirus) [23]: > 10 µg/mL; IC50 (neutralizing activity, pseudovirus) [24]: 0.0016 µg/mL; IC50 (neutralizing activity, pseudovirus) [25]: > 10 µg/mL; IC50 (neutralizing activity, pseudovirus) [26]: 5.08 µg/mL; IC50 (neutralizing activity, pseudovirus) [35]: > 10 µg/mL; IC50 (neutralizing activity, pseudovirus) [27]: 0.0047 µg/mL; IC50 (neutralizing activity, pseudovirus) [28]: 0.0563 µg/mL; IC50 (neutralizing activity, pseudovirus) [29]: > 10 µg/mL; IC50 (neutralizing activity, pseudovirus) [30]: 0.822 µg/mL; IC50 (neutralizing activity, pseudovirus) [31]: 2.35 µg/mL; IC50 (neutralizing activity, pseudovirus) [32]: > 10 µg/mL; IC50 (neutralizing activity, pseudovirus) [33]: 0.856 µg/mL
4995_E20 (PGT-142) (antibody) |  |  |  |  |  |  |  |  |  |  |  |  |  |  |  |  |  |  |  |  | neutralization IC50 (pseudovirus) [21]: > 10 µg/mL; IC50 (neutralizing activity, pseudovirus) [22]: 0.0022 µg/mL; IC50 (neutralizing activity, pseudovirus) [34]: > 10 µg/mL; IC50 (neutralizing activity, pseudovirus) [23]: > 10 µg/mL; IC50 (neutralizing activity, pseudovirus) [24]: 0.0017 µg/mL; IC50 (neutralizing activity, pseudovirus) [25]: > 10 µg/mL; IC50 (neutralizing activity, pseudovirus) [26]: 5.42 µg/mL; IC50 (neutralizing activity, pseudovirus) [35]: > 10 µg/mL; IC50 (neutralizing activity, pseudovirus) [27]: 0.0085 µg/mL; IC50 (neutralizing activity, pseudovirus) [28]: 0.0578 µg/mL; IC50 (neutralizing activity, pseudovirus) [29]: > 10 µg/mL; IC50 (neutralizing activity, pseudovirus) [30]: 0.272 µg/mL; IC50 (neutralizing activity, pseudovirus) [31]: 1.23 µg/mL; IC50 (neutralizing activity, pseudovirus) [32]: > 10 µg/mL; IC50 (neutralizing activity, pseudovirus) [33]: 0.712 µg/mL
VRC01 (antibody) |  |  |  |  |  |  |  |  |  |  |  |  |  |  |  |  |  |  |  |  | IC50, pseudovirus neutralization [3]: 1.01 µg/mL; IC50 (µg/mL), pseudovirus neutralization [12]: > 50 µg/mL; IC50 (µg/mL), pseudovirus neutralization [13]: 1.57 µg/mL; IC50 (µg/mL), pseudovirus neutralization [14]: 0.366 µg/mL; IC50 (µg/mL), pseudovirus neutralization [15]: 1.13 µg/mL; IC50 (µg/mL), pseudovirus neutralization [16]: 0.396 µg/mL; IC50 (µg/mL), pseudovirus neutralization [17]: 13 µg/mL; IC50 (µg/mL), pseudovirus neutralization [18]: 0.077 µg/mL; IC50 (µg/mL), pseudovirus neutralization [19]: 3.4 µg/mL; IC50 (µg/mL), pseudovirus neutralization [20]: 2.36 µg/mL
b12 (antibody) | > 50 µg/mL | > 50 µg/mL | 5.46 µg/mL | 2.66 µg/mL | > 50 µg/mL | > 50 µg/mL | 1.51 µg/mL | > 50 µg/mL | > 50 µg/mL | > 50 µg/mL | > 50 µg/mL | > 50 µg/mL | 13.3 µg/mL | > 50 µg/mL | > 50 µg/mL | > 50 µg/mL | > 50 µg/mL | 13.9 µg/mL | > 50 µg/mL | > 50 µg/mL | 
